Data on 116 sequences can be found in the supplement of paper PMC10724198.

± gives the standard deviation of the averaged measurements.
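Also: PSI is a weighted mean of sequencing reads over stability bins, variants kept only with over 10 reads, mCherry proximal and sfGFP distal, peptide attached via GGGS linker.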

This data set concerns Saccharomyces cerevisiae. As to the kind of experiment: protein stability index of tFT-peptide fusion (C-terminal peptide) (PSI (0-1 scale)); higher = more stable (slower turnover). The following applies: genetic background: wild type; temperature: 30 C.
IQLEFEDMERGK yielded a protein stability index of 0.704 ± 0.11.

IQNTERIKIQTK had a protein stability index of 0.6791 ± 0.0034.

Turning to IRCGQFSVVSES, the protein stability index is 0.6 ± 0.028.

On to IRHTQVSHIIYA, for which the protein stability index amounted to 0.488 ± 0.029.

Regarding IRKNWQRIGETA, the protein stability index worked out at 0.662 ± 0.026.

For the sequence IRLFAPVVFLPL, the protein stability index came to 0.644 ± 0.054.

Regarding IRQTIEGRRLVM, the protein stability index was determined as 0.662 ± 0.026.

The sequence IRRTSENEEETW returned a protein stability index of 0.673 ± 0.043.

Take IRSLKTSPLMRG: the protein stability index worked out at 0.704 ± 0.043.

Consider IRVATIQSTMYI, for which the protein stability index was determined as 0.643 ± 0.016.

Sequence IRWKEIIDKWSY gave a protein stability index of 0.844 ± 0.038.

The sequence ISCVLSTVGVGH registered a protein stability index of 0.663 ± 0.044.

Take ISHAGSVPDRSV: the protein stability index is 0.701 ± 0.04.

For the sequence ISIAATPHVSQP, the protein stability index was 0.661 ± 0.054.

ISLTFNSNSKPM registered a protein stability index of 0.687 ± 0.053.

In turn, ISLTHAPKTGFY returned a protein stability index of 0.695 ± 0.008.

ISMASRAGILRG came in with a protein stability index of 0.686 ± 0.049.

As for ISMSDFRLFAIW, the protein stability index is 0.6646 ± 0.0047.

ISNPAVHNPAGG registered a protein stability index of 0.641 ± 0.017.

Regarding ISRLLVLCRDLT, the protein stability index turned out to be 0.65 ± 0.033.

With ISVSRLRMKDRN, the protein stability index worked out at 0.713 ± 0.22.

For ISWLLSFLGVVF, the protein stability index was found to be 0.601 ± 0.046.

Sequence ITDCAFIPLTVD yielded a protein stability index of 0.764 ± 0.095.

Turning to ITGGEKNKEESG, the protein stability index turned out to be 0.698 ± 0.019.

With ITIVIKQNVDKE, the protein stability index was found to be 0.564 ± 0.016.

ITPLVQRPSSLR: the protein stability index worked out at 0.689 ± 0.088.

Sequence ITRSEEAKWLCA returned a protein stability index of 0.685 ± 0.045.

On to ITSALRYLSAVG, for which the protein stability index is 0.656 ± 0.022.

ITSITRFKVDSR showed a protein stability index of 0.628 ± 0.022.

In the case of ITTLRSLWVVGL, the protein stability index turned out to be 0.609 ± 0.085.

As for IVCGMGDKGMHE, the protein stability index came out at 0.698 ± 0.014.

As to IVGKMRRQKTKI, the protein stability index amounted to 0.685 ± 0.057.

On to IVNDEHVHTYTR, for which the protein stability index was 0.743 ± 0.013.

In turn, IVNNVKYKNRNR came in with a protein stability index of 0.715 ± 0.071.

IVWCAINYLFRS registered a protein stability index of 0.63 ± 0.054.

As to IWCSCWPGNWET, the protein stability index came out at 0.823 ± 0.12.

The sequence IWGLDGKSISID had a protein stability index of 0.751 ± 0.061.

Consider IWGSILGVEANV, for which the protein stability index was found to be 0.685 ± 0.039.

With IWLHFKGSRSLP, the protein stability index amounted to 0.703 ± 0.16.

Take IYPPALLSSSFL: the protein stability index came to 0.709 ± 0.093.

Consider IYSGIYCVGAKH, for which the protein stability index is 0.666 ± 0.03.

For KADVSIRYGINN, the protein stability index was found to be 0.714 ± 0.074.

For KARIADRKMWGN, the protein stability index turned out to be 0.684 ± 0.017.

Turning to KASSGRASGSMA, the protein stability index is 0.673 ± 0.09.

Consider KAWGGEGRDAWG, for which the protein stability index was 0.702 ± 0.069.

As for KCCRRPPPAFRS, the protein stability index was determined as 0.725 ± 0.034.

Consider KCLDSARSSVLP, for which the protein stability index was 0.651 ± 0.043.

For KCPSLVHSNSTG, the protein stability index was determined as 0.71 ± 0.016.

KCSLVLTVARSY displayed a protein stability index of 0.609 ± 0.014.

KCVQESIIKMMI came in with a protein stability index of 0.763 ± 0.15.

On to KDCHPVSRYVRC, for which the protein stability index stood at 0.707 ± 0.01.

In turn, KDFGYKKKNRRY yielded a protein stability index of 0.734 ± 0.032.

KDGGRGGLNWCV: the protein stability index was determined as 0.745 ± 0.095.

In turn, KDNMQFLHLYAS returned a protein stability index of 0.707 ± 0.075.

As to KDRVGYKEIITG, the protein stability index turned out to be 0.695 ± 0.028.

For KEERGINNKKGK, the protein stability index came out at 0.691 ± 0.071.

In the case of KEGARGGEASRR, the protein stability index was 0.669 ± 0.031.

KEKKENKRKNTT displayed a protein stability index of 0.699 ± 0.051.

On to KEKKLKIIQKGT, for which the protein stability index was found to be 0.578 ± 0.09.

As to KEKKQARVKKKK, the protein stability index came to 0.723 ± 0.022.

In turn, KEKRFTQKLIRA registered a protein stability index of 0.654 ± 0.095.

Sequence KENEKQRKSHKK came in with a protein stability index of 0.687 ± 0.043.

KENIRPSESYKC returned a protein stability index of 0.668 ± 0.05.

In turn, KEQESKAISYPV returned a protein stability index of 0.718 ± 0.035.

As for KEQGEGKEKTDK, the protein stability index was 0.682 ± 0.063.

In turn, KESLKDRTKINI gave a protein stability index of 0.692 ± 0.033.

In turn, KEWKSESTVLEV came in with a protein stability index of 0.7468 ± 0.0054.

Consider KFASNNMFTRYV, for which the protein stability index was determined as 0.745 ± 0.012.

As for KFMKEITIDGLT, the protein stability index worked out at 0.709 ± 0.055.

As to KFSFVVAVHAGL, the protein stability index is 0.545 ± 0.024.

KFYIIKRLSGVE displayed a protein stability index of 0.64 ± 0.029.

In turn, KGEGRNRRGVPR registered a protein stability index of 0.675 ± 0.019.

Take KGLKRNENGTMS: the protein stability index stood at 0.638 ± 0.017.

Regarding KGQKIIKNKNPK, the protein stability index is 0.644 ± 0.038.

KGRRQPSSESVM yielded a protein stability index of 0.711 ± 0.014.

On to KGSLVLGSKCCR, for which the protein stability index was 0.681 ± 0.047.

Sequence KGVGGSTSRGGE came in with a protein stability index of 0.666 ± 0.047.

With KHKKKRTRDHEE, the protein stability index was 0.666 ± 0.012.

Sequence KHNRISEKHQKS returned a protein stability index of 0.643 ± 0.0095.

KHRSIRPYLKND: the protein stability index amounted to 0.72 ± 0.037.

With KHSMGSFNNILN, the protein stability index was 0.6674 ± 0.0032.

KIDKNHGILPNY returned a protein stability index of 0.679 ± 0.035.

With KIEAHKKYKKHQ, the protein stability index is 0.726 ± 0.026.

KINAKIYGSEKG yielded a protein stability index of 0.654 ± 0.015.

For KIRKYTKGQIMQ, the protein stability index is 0.687 ± 0.007.

Turning to KITEKLGSPKTF, the protein stability index was determined as 0.654 ± 0.086.

Take KKEKGKKEKEKR: the protein stability index was 0.668 ± 0.056.

Regarding KKEKKIRKKTVT, the protein stability index came to 0.732 ± 0.028.

The sequence KKEQIKINIKGK yielded a protein stability index of 0.693 ± 0.03.

The sequence KKGACTQILQSL registered a protein stability index of 0.789 ± 0.19.

KKGKGKTETIKT showed a protein stability index of 0.695 ± 0.03.

Take KKGRRERRITNE: the protein stability index turned out to be 0.695 ± 0.013.

On to KKHNGHNHQNNF, for which the protein stability index was found to be 0.684 ± 0.019.

For the sequence KKIDQAKETSLS, the protein stability index is 0.68 ± 0.011.

Regarding KKIEKENKKEKF, the protein stability index came out at 0.611 ± 0.056.

For KKIRKGIGNKHI, the protein stability index was 0.651 ± 0.017.

Sequence KKKEKDKKTNKP registered a protein stability index of 0.684 ± 0.057.

For KKKEKKKKNKLK, the protein stability index worked out at 0.74 ± 0.019.

For the sequence KKKEKKNIHSKT, the protein stability index was found to be 0.646 ± 0.029.

KKKFNNFIKIIH yielded a protein stability index of 0.631 ± 0.027.

KKKGDAKNKKKQ registered a protein stability index of 0.714 ± 0.067.

Regarding KKKHKKKKKKKE, the protein stability index came out at 0.676 ± 0.073.

As for KKKKEIKKKKKT, the protein stability index is 0.697 ± 0.06.

In turn, KKKKHKAKGKIG returned a protein stability index of 0.695 ± 0.049.

Sequence KKKKKKDQKNKK came in with a protein stability index of 0.734 ± 0.057.

KKKKKKKGIILD registered a protein stability index of 0.737 ± 0.097.

In turn, KKKKKKKKKPEK gave a protein stability index of 0.708 ± 0.022.

In turn, KKKKKKKKRARY showed a protein stability index of 0.657 ± 0.0063.

For KKKKKKKNKKRK, the protein stability index is 0.683 ± 0.019.

For the sequence KKKKKKKNRETK, the protein stability index was 0.655 ± 0.042.

Regarding KKKKKKKTKKKK, the protein stability index amounted to 0.78 ± 0.034.

KKKKKKQEKNKK came in with a protein stability index of 0.694 ± 0.042.

Sequence KKKKKKRQKNTK had a protein stability index of 0.691 ± 0.03.

Regarding KKKKKSKIEKKD, the protein stability index worked out at 0.725 ± 0.077.

Sequence KKKKKSKKKTKT displayed a protein stability index of 0.668 ± 0.0037.

On to KKKKKSKKQKKK, for which the protein stability index came out at 0.733 ± 0.019.
